Source: the supplement of paper PMC12338614
± gives the uncertainty stated by the source.

B1: library; numbered along this chain (parent)
chain: MEVVDPQQLGMFTEGELMSVGMDTFIHRIDSTEVIYQPRRKRAKLIGKYLMGDLLGEGSYGKVKEVLDSETLCRRAVKILKKKKLRRIPNGEANVKKEIQLLRRLRHKNVIQLVDVLYNEEKQKMYMVMEYCVCGMQEMLDSVPEKRFPVCQAHGYFCQLIDGLEYLHSQGIVHKDIKPGNLLLTTGGTLKISDLGVAEALHPFAADDTCRTSQGSPAFQPPEIANGLDTFSGFKVDIWSAGVTLYNITTGLYPFEGDNIYKLFENIGKGSYAIPGDCGPPLSDLLKGMLEYEPAKRFSIRQIRQHSWFRKKHPPAEAPVPIPPSPDTKDRWRSMTVVPYLEDLHGADEDEDLFDIEDDIIYTQDFTVPGQVPEEEASHNGQRRGLPKAVCMNGTEAAQLSTKSRAEGRAPNPARKACSASSKIRRLSACKQQ

Variants of: B1
Test: STK11 functional score (HeLa growth suppression), rescaled enrichment; synonymous median = 1, nonsense median = 0 (normalised score)
Settings: with HeLa; variant type: missense
Description: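 Deep mutational scan (TileSeq/POPCode codon randomisation) of full-length codon-optimised STK11 cDNA integrated at a Bxb1 landing pad (AAVS1) in HeLa cells. Restoring functional STK11 suppresses HeLa proliferation. Variant frequencies were measured by NGS before and after about two weeks of growth. The error-corrected enrichment log-ratio was rescaled so that synonymous median = 1 and nonsense median = 0, scores above 1 were compressed, and codon-level and three biological replicate scores were combined; error is the bootstrapped standard error. Scale: synonymous median = 1, nonsense median = 0; below 0.5 = damaging.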

STK11 functional score: each site, then its substitutions
I88: M 0.899 ± 0.094 | R 1.65 ± 0.19 | F 0.793 ± 0.079 | L 1.24 ± 0.26 | V 0.87 ± 0.1 | C 1.07 ± 0.28 | E 1.53 ± 0.18 | G 0.665 ± 0.23 | W 0.401 ± 0.49 | T 1.48 ± 0.39 | S 1.16 ± 0.26 | Q -0.36 ± 0.084 | Y 1.67 ± 0.21 | D 1.58 ± 0.25
K96: L 0.614 ± 0.26 | S 1.11 ± 0.12 | F 0.801 ± 0.17 | H 1.33 ± 0.072 | G 1.31 ± 0.19 | T 1.05 ± 0.082 | Y 1.23 ± 0.31 | W 0.729 ± 0.42 | R 1.18 ± 0.16 | P 0.38 ± 0.12 | I 1.08 ± 0.17 | D 1.27 ± 0.25 | V 0.667 ± 0.17 | Q 0.724 ± 0.15 | N 1.14 ± 0.35 | E 0.384 ± 0.32
L85: W 1.16 ± 0.086 | C 1.1 ± 0.34 | Y 0.234 ± 0.093 | A 1.62 ± 0.21 | V 1.15 ± 0.15 | T -0.0975 ± 0.19 | S 1.29 ± 0.17 | I 1.56 ± 0.2 | P 1.41 ± 0.18 | G 0.21 ± 0.094 | E 1.7 ± 0.4
G91: A 0.99 ± 0.19 | K 0.301 ± 0.33 | C 0.164 ± 0.23 | H 0.418 ± 0.46 | Q 1.1 ± 0.13 | F 0.906 ± 0.23 | P 1.62 ± 0.19 | M 0.64 ± 0.2 | V 0.481 ± 0.08 | N 1.38 ± 0.089 | I 1.63 ± 0.22 | R 1.03 ± 0.16 | L 1.54 ± 0.13 | S 0.833 ± 0.096
E92: F 1.56 ± 0.53 | A 1.31 ± 0.35 | Y 1.32 ± 0.26 | W 1.03 ± 0.61 | I -0.0755 ± 0.16 | M -0.344 ± 0.13 | N 1.39 ± 0.11 | V 1.02 ± 0.09 | R 1.64 ± 0.4 | Q 1.16 ± 0.51 | S 0.979 ± 0.19 | T 1.62 ± 0.18 | C 1.68 ± 0.18 | L 1.01 ± 0.15
R103: H 1.6 ± 0.32 | W 0.732 ± 0.31 | I 1 ± 0.15 | K 1.18 ± 0.77 | Y 1.15 ± 0.18 | P 0.985 ± 0.18 | T 1.32 ± 0.27 | C 1.05 ± 0.22 | E 1.68 ± 0.18 | A 1.42 ± 0.15 | S 1.02 ± 0.11 | V 0.764 ± 0.15 | G 0.667 ± 0.098 | Q 1.27 ± 0.41 | L 0.918 ± 0.12
R87: L 1.18 ± 0.15 | P 1.24 ± 0.12 | G 1.11 ± 0.083 | V 1.08 ± 0.43 | A 0.186 ± 0.13 | I 1.45 ± 0.17 | Y 1.6 ± 0.29 | T 1.48 ± 0.38 | K 0.613 ± 0.69 | S 0.989 ± 0.55
P89: A 1.1 ± 0.3 | E 1.68 ± 0.19 | D 0.0497 ± 0.083 | Y 0.644 ± 0.31 | H 1.3 ± 0.17 | G 0.213 ± 0.086 | L 0.532 ± 0.24 | T 0.786 ± 0.13 | W 1.08 ± 0.16 | C 1.29 ± 0.072 | M 1.55 ± 0.16 | N 1.67 ± 0.19 | R 0.754 ± 0.1 | Q 1.4 ± 0.12 | V 0.683 ± 0.088 | I 1.41 ± 0.25 | S 0.816 ± 0.17
K82: L 1.49 ± 0.16 | G 1.23 ± 0.17 | T 1.56 ± 0.17 | R 1.66 ± 0.4 | W 1.33 ± 0.33 | C 1.23 ± 0.15 | P 1.69 ± 0.18 | D 1.17 ± 0.19 | E 1.36 ± 0.75 | S 1.15 ± 0.26 | V 0.966 ± 0.26 | A 1.43 ± 0.15 | Q 1.7 ± 0.18 | I 1.3 ± 0.54 | H 1.08 ± 0.22 | F 0.966 ± 0.26
K83: Y 1.15 ± 0.15 | L 0.484 ± 0.22 | S 1.7 ± 0.19 | V 1.05 ± 0.48 | W 1.53 ± 0.11 | Q 0.343 ± 0.37 | E 1.48 ± 0.68 | T 0.156 ± 0.58 | N 1.3 ± 0.39 | A 1.58 ± 0.36 | I 1.29 ± 0.08 | P 1.64 ± 0.41 | C 1.39 ± 0.23
L102: V 0.912 ± 0.083 | S 0.447 ± 0.3 | R 0.466 ± 0.086 | G 1.07 ± 0.08 | A 0.777 ± 0.23 | T 0.0689 ± 0.37 | W 1.2 ± 0.079 | Q 1.48 ± 0.65 | F 1.11 ± 0.17 | E 1.51 ± 0.11 | H 1.61 ± 0.3 | D 0.469 ± 0.2 | I 1.26 ± 0.2 | M 0.857 ± 0.19 | Y 1.2 ± 0.37
N94: R 1.37 ± 0.14 | W 0.162 ± 0.14 | S 1.27 ± 0.34 | D 1.31 ± 0.14 | L 0.89 ± 0.17 | M 0.437 ± 0.077 | C 1.1 ± 0.2 | I 1.14 ± 0.21 | Q 1.2 ± 0.65 | V 0.637 ± 0.13 | E 0.862 ± 0.32 | F 0.728 ± 0.22 | P 1.21 ± 0.64 | Y 0.568 ± 0.34 | G 0.953 ± 0.18 | H 1.35 ± 0.3 | A 0.173 ± 0.19 | T 1.27 ± 0.18
E98: G 0.397 ± 0.099 | I 0.496 ± 0.18 | Q 0.273 ± 0.089 | W 0.16 ± 0.15 | H 0.617 ± 0.08 | L 0.433 ± 0.22 | Y 0.182 ± 0.18 | S 1.49 ± 0.16 | T 0.259 ± 0.093 | M 0.133 ± 0.46 | R 0.172 ± 0.083 | K 1.12 ± 0.67 | A 0.326 ± 0.083 | V 0.117 ± 0.083
K97: C 0.937 ± 0.18 | D 1.27 ± 0.21 | P 1.1 ± 0.4 | W 0.46 ± 0.082 | Q 0.688 ± 0.72 | N 1.21 ± 0.42 | T 1.32 ± 0.48 | A 1.47 ± 0.27 | G 0.699 ± 0.38 | L 0.76 ± 0.24 | S 0.724 ± 0.17 | E 1.42 ± 0.45 | V 0.998 ± 0.2
L101: S 1.43 ± 0.37 | R 1.25 ± 0.2 | Y 1.21 ± 0.079 | M 1.62 ± 0.22 | V 0.836 ± 0.1 | W -0.0513 ± 0.12 | Q 0.894 ± 1 | I 1.06 ± 0.38 | P 0.045 ± 0.083
R86: T 1.69 ± 0.18 | G 1.3 ± 0.46 | E 1.6 ± 0.14 | A 1.26 ± 0.17 | M -0.183 ± 0.08 | L 0.854 ± 0.11 | D 1.68 ± 0.19 | P 1.3 ± 0.17 | W 0.178 ± 0.085 | I 1.24 ± 0.1 | V 1.4 ± 0.26
R104: T 1.3 ± 0.34 | Y 0.684 ± 0.14 | V 0.88 ± 0.21 | K 1.31 ± 0.67 | F 1.19 ± 0.3 | D 0.685 ± 0.19 | I 1.23 ± 0.25 | L 1.4 ± 0.2 | Q 1.21 ± 0.56 | G 0.389 ± 0.56 | S 0.76 ± 0.2
L105: C 1.53 ± 0.064 | I 1.57 ± 0.36 | M 1.18 ± 0.74 | P 0.588 ± 0.23 | A 1.32 ± 0.18 | S 1.29 ± 0.15 | D 0.494 ± 0.2 | G 0.712 ± 0.15 | R 0.653 ± 0.31
K84: S 1.71 ± 0.19 | L 1.64 ± 0.17 | P 1.52 ± 0.45 | T 0.646 ± 0.11 | N 0.967 ± 0.3 | E 0.845 ± 0.33 | C 1.68 ± 0.42 | W 1.14 ± 0.17 | G 1.47 ± 0.4 | V 0.24 ± 0.085
L80: Y 1.13 ± 0.23 | W 1.47 ± 0.25
V95: P 1.65 ± 0.3 | Y 1.55 ± 0.17 | H 1.64 ± 0.19 | L 0.889 ± 0.12 | S 1.4 ± 0.18 | N 1.6 ± 0.14 | R 1.02 ± 0.16 | D 1.5 ± 0.27 | Q 1.46 ± 0.45 | T 1.62 ± 0.22 | F 0.945 ± 0.26 | E 0.927 ± 0.43 | A 1.28 ± 0.19 | C 0.913 ± 0.28 | W 0.452 ± 0.08 | G 0.326 ± 0.15
I99: D 0.335 ± 0.1 | S 0.869 ± 0.37 | V 0.876 ± 0.11 | M 1.07 ± 0.36 | T 1.45 ± 0.43 | E 1.65 ± 0.16 | L 0.855 ± 0.1 | C 1.57 ± 0.18 | G 0.767 ± 0.3 | F 1.64 ± 0.16 | W 0.631 ± 0.11 | Q 0.527 ± 0.62 | P 0.0871 ± 0.35 | R 0.708 ± 0.16 | Y 0.0269 ± 0.081
Q100: F 0.976 ± 0.19 | W 0.696 ± 0.17 | H 1.28 ± 0.4 | R 1.34 ± 0.13 | A 0.571 ± 0.42 | L 0.857 ± 0.23 | Y 0.248 ± 0.19 | T 1.3 ± 0.43 | G 1.17 ± 0.14 | E 1.25 ± 0.76 | S 1.1 ± 0.18 | D 1.57 ± 0.19 | V 1.39 ± 0.2 | I 1.64 ± 0.19 | P 0.999 ± 0.14
A93: H 1.66 ± 0.18 | W 1.63 ± 0.1 | S 0.907 ± 0.2 | G 0.685 ± 0.085 | R 1.6 ± 0.19 | V 0.101 ± 0.08 | L 1.12 ± 0.26 | P 1.68 ± 0.42
K81: Y 1.29 ± 0.37 | W 0.565 ± 0.079 | V 0.987 ± 0.11 | Q 0.882 ± 0.35 | H 1.25 ± 0.083 | L 1.1 ± 0.13 | T 1.35 ± 0.3 | P 0.992 ± 0.18 | F 0.987 ± 0.086 | I 1.19 ± 0.12 | R 1.21 ± 0.16 | G 1.04 ± 0.1 | A 1.66 ± 0.18 | N 1.37 ± 0.34 | D 1.28 ± 0.56 | S 0.932 ± 0.1
N90: W 0.707 ± 0.4 | P 1.08 ± 0.3 | R 1.01 ± 0.18 | I 0.781 ± 0.2 | D 1.23 ± 0.21 | L 1 ± 0.12 | V 1.17 ± 0.3 | A 1.14 ± 0.72 | S 1.21 ± 0.14 | G 1.63 ± 0.19 | T 0.558 ± 0.27 | K -0.0122 ± 0.3
